# Tests used:
# HLA-A*02:01 [1] = test: IEDB peptide-MHC binding, purified MHC/competitive/fluorescence; ≥ and ≤ were set here for values at or beyond the usual limits of such assays; settings: source organism: Zaire ebolavirus
# HLA-A*11:01 [2] = test: as above
# HLA-B*39:01 [3] = test: IEDB peptide-MHC binding, purified MHC/direct/fluorescence; filed as Kd, often an IC50 or EC50 that approximates it; ≥ and ≤ were set here for values at or beyond the usual limits of such assays
# HLA-C*05:01 = test: as above
# HLA-B*15:42 = test: IEDB peptide-MHC binding, purified MHC/competitive/fluorescence; filed as Kd, often an IC50 or EC50 that approximates it; ≥ and ≤ were set here for values at or beyond the usual limits of such assays; settings: source organism: human gammaherpesvirus 4
# HLA-B*45:06 = test: as above; settings: source organism: human gammaherpesvirus 4
# HLA-B*83:01 = test: as above; settings: source organism: human gammaherpesvirus 4
# HLA-A*03:01 [4] = test: IEDB peptide-MHC binding, purified MHC/competitive/fluorescence; ≥ and ≤ were set here for values at or beyond the usual limits of such assays
# HLA-A*24:02 [5] = test: as above
# HLA-A*02:01 [6] = test: IEDB peptide-MHC binding, purified MHC/direct/fluorescence; filed as Kd, often an IC50 or EC50 that approximates it; ≥ and ≤ were set here for values at or beyond the usual limits of such assays
# HLA-A*02:11 = test: as above; settings: source organism: Orthohantavirus sangassouense
# HLA-A*02:12 = test: as above; settings: source organism: Orthohantavirus sangassouense
# HLA-A*02:19 = test: as above; settings: source organism: Orthohantavirus sangassouense
# HLA-A*69:01 [7] = test: as above
# HLA-B*15:17 [8] = test: as above
# HLA-A*24:02 [9] = test: IEDB peptide-MHC binding, purified MHC/competitive/radioactivity; filed as Kd, often an IC50 or EC50 that approximates it; ≥ and ≤ were set here for values at or beyond the usual limits of such assays; settings: source organism: Dengue virus 2 Jamaica/1409/1983
# HLA-B*53:01 = test: as above; settings: source organism: Dengue virus 2 Jamaica/1409/1983
# HLA-B*57:01 [10] = test: as above; settings: source organism: Dengue virus 2 Jamaica/1409/1983
# HLA-A*01:01 = test: IEDB peptide-MHC binding, purified MHC/direct/fluorescence; filed as Kd, often an IC50 or EC50 that approximates it; ≥ and ≤ were set here for values at or beyond the usual limits of such assays; settings: source organism: Escherichia coli O157:H7
# HLA-A*03:01 [11] = test: as above; settings: source organism: Escherichia coli O157:H7
# HLA-A*11:01 [12] = test: as above
# HLA-A*26:01 [13] = test: as above; settings: source organism: Escherichia coli O157:H7
# HLA-A*31:01 = test: as above; settings: source organism: Escherichia coli O157:H7
# HLA-B*07:02 = test: as above; settings: source organism: Escherichia coli O157:H7
# HLA-B*08:01 = test: as above; settings: source organism: Escherichia coli O157:H7
# HLA-B*15:01 [14] = test: as above; settings: source organism: Escherichia coli O157:H7
# HLA-B*27:05 = test: as above; settings: source organism: Escherichia coli O157:H7
# HLA-B*40:01 = test: as above; settings: source organism: Escherichia coli O157:H7
# HLA-B*44:02 = test: as above; settings: source organism: Escherichia coli O157:H7
# HLA-B*57:01 [15] = test: as above; settings: source organism: Escherichia coli O157:H7
# HLA-B*58:01 = test: as above; settings: source organism: Escherichia coli O157:H7
# HLA-A*26:01 [16] = test: IEDB peptide-MHC binding, purified MHC/competitive/fluorescence; filed as Kd, often an IC50 or EC50 that approximates it; ≥ and ≤ were set here for values at or beyond the usual limits of such assays
# HLA-B*15:17 [17] = test: as above; settings: source organism: Homo sapiens
# HLA-B*18:01 = test: as above
# HLA-B*27:03 = test: as above
# HLA-B*39:01 [18] = test: as above
# HLA-B*46:01 = test: as above
# HLA-B*51:01 = test: as above; settings: source organism: Homo sapiens
# HLA-B*57:01 [19] = test: as above
# HLA-A*03:01 [20] = test: as above
# HLA-A*69:01 [21] = test: as above; settings: source organism: Homo sapiens
# HLA-B*15:01 [22] = test: as above
# HLA-A*02:01 [23] = test: as above; settings: source organism: Staphylococcus aureus subsp. aureus N315
# [24] = source organism: Zaire ebolavirus
# [25] = source organism: Vaccinia virus Copenhagen
# [26] = source organism: Sudan ebolavirus
# [27] = source organism: Escherichia coli O157:H7
# [28] = source organism: Staphylococcus aureus subsp. aureus N315
sequence,measurement,setting,value
ATISTSPQS,IC50,HLA-A*02:01 [1],≥ 108 µM
same,IC50,HLA-A*11:01 [2]; [24],17.5 µM
FHDSNVKNL,Kd,HLA-B*39:01 [3]; source organism: Influenza A virus (A/chicken/Nakorn-Patom/Thailand/CU-K3/2004(H5N1)),0.168 µM
FHFFVHTLL,Kd,HLA-B*39:01 [3]; source organism: Camelpox virus M-96,0.052 µM
FLDKGTYTL,Kd,HLA-C*05:01; source organism: human gammaherpesvirus 4,≤ 0.001 µM
same,Kd,HLA-B*15:42,≥ 5 µM
same,Kd,HLA-B*45:06,≥ 5 µM
same,Kd,HLA-B*83:01,≥ 5 µM
FRAICTNGL,Kd,HLA-B*39:01 [3]; source organism: Escherichia coli O157:H7 str. EC869,0.01 µM
FYRSGTETK,IC50,HLA-A*03:01 [4]; [25],64.2 µM
same,IC50,HLA-A*11:01 [2]; [25],44.1 µM
same,IC50,HLA-A*24:02 [5]; [25],≥ 99.2 µM
GEESASSGK,IC50,HLA-A*11:01 [2]; [24],≥ 314 µM
GIYTEGLMH,IC50,HLA-A*03:01 [4]; [26],15.4 µM
same,IC50,HLA-A*11:01 [2]; [26],3.55 µM
GLYPAQIKA,Kd,HLA-A*02:01 [6]; source organism: Amur virus,0.0035 µM
same,Kd,HLA-A*02:11,0.033 µM
same,Kd,HLA-A*02:12,0.126 µM
same,Kd,HLA-A*02:19,≥ 20 µM
same,Kd,HLA-A*69:01 [7]; source organism: Amur virus,≥ 20 µM
GTNTTTEDH,IC50,HLA-A*11:01 [2]; [24],≥ 76.9 µM
ITAAAWYLW,Kd,HLA-B*15:17 [8]; source organism: dengue virus type 2,0.0067 µM
same,Kd,HLA-A*24:02 [9],0.0215 µM
same,Kd,HLA-B*53:01,0.174 µM
same,Kd,HLA-B*57:01 [10],0.000477 µM
KIDNNTFVR,IC50,HLA-A*03:01 [4]; [26],31.9 µM
same,IC50,HLA-A*11:01 [2]; [26],2.74 µM
KSMRDQRKG,IC50,HLA-A*03:01 [4]; source organism: Variola virus,≥ 119 µM
same,IC50,HLA-A*11:01 [2]; source organism: Variola virus,47.3 µM
KTTIKFHPW,Kd,HLA-A*01:01,≥ 20 µM
same,Kd,HLA-A*02:01 [6]; [27],≥ 20 µM
same,Kd,HLA-A*03:01 [11],≥ 20 µM
same,Kd,HLA-A*11:01 [12]; [27],≥ 20 µM
same,Kd,HLA-A*26:01 [13],≥ 20 µM
same,Kd,HLA-A*31:01,0.333 µM
same,Kd,HLA-A*69:01 [7]; [27],≥ 20 µM
same,Kd,HLA-B*07:02,≥ 20 µM
same,Kd,HLA-B*08:01,≥ 20 µM
same,Kd,HLA-B*15:01 [14],≥ 20 µM
same,Kd,HLA-B*15:17 [8]; [27],0.0278 µM
same,Kd,HLA-B*27:05,≥ 20 µM
same,Kd,HLA-B*40:01,≥ 20 µM
same,Kd,HLA-B*44:02,≥ 20 µM
same,Kd,HLA-B*57:01 [15],0.215 µM
same,Kd,HLA-B*58:01,0.0475 µM
LITGGRRTR,IC50,HLA-A*02:01 [1],≥ 111 µM
same,IC50,HLA-A*03:01 [4]; [24],≥ 112 µM
same,IC50,HLA-A*11:01 [2]; [24],≥ 93.3 µM
LLAMTFWPA,Kd,HLA-A*02:01 [6]; source organism: Homo sapiens,0.0002 µM
same,Kd,HLA-A*26:01 [16]; source organism: Homo sapiens,≥ 20 µM
same,Kd,HLA-B*15:17 [17],≥ 20 µM
same,Kd,HLA-B*18:01; source organism: Homo sapiens,≥ 20 µM
same,Kd,HLA-B*27:03; source organism: Homo sapiens,≥ 20 µM
same,Kd,HLA-B*39:01 [18]; source organism: Homo sapiens,≥ 20 µM
same,Kd,HLA-B*46:01; source organism: Homo sapiens,≥ 20 µM
same,Kd,HLA-B*51:01,≥ 20 µM
same,Kd,HLA-B*57:01 [19]; source organism: Homo sapiens,≥ 20 µM
LLLKERGLH,Kd,HLA-A*03:01 [20]; source organism: Vibrio parahaemolyticus AQ3810,≥ 20 µM
LMQCWQLLA,Kd,HLA-A*26:01 [16]; source organism: Homo sapiens,≥ 20 µM
same,Kd,HLA-A*69:01 [21],≥ 20 µM
same,Kd,HLA-B*15:01 [22]; source organism: Homo sapiens,≥ 20 µM
same,Kd,HLA-B*15:17 [17],≥ 20 µM
same,Kd,HLA-B*18:01; source organism: Homo sapiens,≥ 20 µM
same,Kd,HLA-B*27:03; source organism: Homo sapiens,≥ 20 µM
same,Kd,HLA-B*39:01 [18]; source organism: Homo sapiens,≥ 20 µM
same,Kd,HLA-B*46:01; source organism: Homo sapiens,≥ 20 µM
same,Kd,HLA-B*51:01,≥ 20 µM
same,Kd,HLA-B*57:01 [19]; source organism: Homo sapiens,≥ 20 µM
LSSSVPSQK,Kd,HLA-A*03:01 [20]; source organism: Homo sapiens,0.455 µM
SGYYSTTIR,IC50,HLA-A*03:01 [4]; [24],1.67 µM
same,IC50,HLA-A*11:01 [2]; [24],0.903 µM
same,IC50,HLA-A*24:02 [5]; [24],≥ 346 µM
STTLFKIDN,IC50,HLA-A*11:01 [2]; [26],≥ 146 µM
TFDVAPSRL,Kd,HLA-A*11:01 [12]; source organism: Homo sapiens,≥ 32.6 µM
same,Kd,HLA-C*05:01; source organism: Mus musculus,≥ 20 µM
VILNYIPVL,Kd,HLA-A*02:01 [23],0.0006 µM
same,Kd,HLA-A*03:01 [20]; [28],≥ 20 µM
same,Kd,HLA-A*26:01 [16]; [28],≥ 20 µM
same,Kd,HLA-B*15:01 [22]; [28],≥ 20 µM
same,Kd,HLA-B*18:01; [28],≥ 20 µM
same,Kd,HLA-B*27:03; [28],≥ 20 µM
same,Kd,HLA-B*39:01 [18]; [28],≥ 20 µM
same,Kd,HLA-B*46:01; [28],≥ 20 µM
same,Kd,HLA-B*57:01 [19]; [28],≥ 20 µM
WMFRIRIIL,Kd,HLA-A*26:01 [16]; source organism: Homo sapiens,≥ 20 µM
same,Kd,HLA-A*69:01 [21],≥ 20 µM
same,Kd,HLA-B*15:01 [22]; source organism: Homo sapiens,≥ 20 µM
same,Kd,HLA-B*27:03; source organism: Homo sapiens,≥ 20 µM
same,Kd,HLA-B*46:01; source organism: Homo sapiens,≥ 20 µM
same,Kd,HLA-B*51:01,≥ 20 µM
same,Kd,HLA-B*57:01 [19]; source organism: Homo sapiens,≥ 20 µM

# Source: the Immune Epitope Database (IEDB)
